One data set deals with T1, FePYR1-ABA-AtHAB1 (Festuca elata, UniProt A0A2D1UXN2).
T1 construct: H6-SUMO-FePYR1 and biotin-MBP-AtHAB1 (172-511), E. coli; tags kept for AlphaScreen; with Protein phosphatase 2C 16 (HAB1, Arabidopsis thaliana)
T1 sequence (A0A2D1UXN2 1-212): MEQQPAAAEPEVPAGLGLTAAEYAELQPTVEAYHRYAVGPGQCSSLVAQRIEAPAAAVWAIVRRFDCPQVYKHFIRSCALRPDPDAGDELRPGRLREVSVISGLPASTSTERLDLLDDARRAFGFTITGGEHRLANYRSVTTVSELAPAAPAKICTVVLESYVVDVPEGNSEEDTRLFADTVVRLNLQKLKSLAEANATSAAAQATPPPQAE
T1 sequence (Q9CAJ0 172-511 partner): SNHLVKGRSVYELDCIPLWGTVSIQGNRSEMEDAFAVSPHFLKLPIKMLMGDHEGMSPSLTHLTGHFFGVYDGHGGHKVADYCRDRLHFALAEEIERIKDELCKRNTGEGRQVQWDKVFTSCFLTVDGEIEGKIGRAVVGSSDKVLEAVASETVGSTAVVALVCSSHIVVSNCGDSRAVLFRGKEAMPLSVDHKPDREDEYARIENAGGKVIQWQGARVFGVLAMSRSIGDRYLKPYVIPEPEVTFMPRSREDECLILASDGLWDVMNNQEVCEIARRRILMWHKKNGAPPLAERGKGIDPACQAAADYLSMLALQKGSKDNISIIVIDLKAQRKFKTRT
Kind of data set: AlphaScreen, ABA-dependent receptor-PP2C interaction. It is filed as binding. The text has this: AlphaScreen, ABA-dependent receptor-PP2C interaction on FePYR1-ABA-AtHAB1 | EC50 values of FePYL1, FePYR1, ZjPYL2 in interacting with AtHAB1
Background: Bead proximity is the source of the signal in Alpha formats.

The next data set addresses T2, AtPYR1 (Arabidopsis thaliana, UniProt O49686).
T2 construct: gene PYR1; homodimer
T2 sequence (O49686 9-182): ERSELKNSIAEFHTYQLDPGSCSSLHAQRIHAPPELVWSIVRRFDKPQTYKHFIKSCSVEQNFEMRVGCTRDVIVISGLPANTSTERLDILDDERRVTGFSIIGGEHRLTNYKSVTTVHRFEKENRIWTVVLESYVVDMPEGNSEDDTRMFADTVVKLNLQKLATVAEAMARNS
Nature of the data set: ABA binding assay in supplement (method not given). As to conditions: affinity reported comparable to FePYR1.

Another data set deals with T3, ZjPYL2 with AtHAB1 (Zoysia japonica, UniProt A0A2D1UXP2).
T3 construct: H6-SUMO-ZjPYL2 and biotin-MBP-AtHAB1 (172-511), E. coli; tags kept; with Protein phosphatase 2C 16 (HAB1, Arabidopsis thaliana)
T3 sequence (A0A2D1UXP2 1-216): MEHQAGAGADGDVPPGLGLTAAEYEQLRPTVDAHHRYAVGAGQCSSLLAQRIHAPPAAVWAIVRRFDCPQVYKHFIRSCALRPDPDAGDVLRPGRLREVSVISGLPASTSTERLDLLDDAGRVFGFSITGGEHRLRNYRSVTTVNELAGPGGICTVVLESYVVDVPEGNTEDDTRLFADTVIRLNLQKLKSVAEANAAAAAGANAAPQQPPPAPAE
T3 sequence (Q9CAJ0 172-511 partner): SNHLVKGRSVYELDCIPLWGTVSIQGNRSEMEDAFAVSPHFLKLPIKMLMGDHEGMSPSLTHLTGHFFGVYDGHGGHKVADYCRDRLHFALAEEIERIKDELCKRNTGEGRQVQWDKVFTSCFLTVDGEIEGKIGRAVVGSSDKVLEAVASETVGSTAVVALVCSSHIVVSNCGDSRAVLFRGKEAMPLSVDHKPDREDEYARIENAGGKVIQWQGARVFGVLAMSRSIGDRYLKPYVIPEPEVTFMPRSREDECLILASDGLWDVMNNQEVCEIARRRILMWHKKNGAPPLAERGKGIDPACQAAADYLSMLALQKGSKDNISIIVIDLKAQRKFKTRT
Kind of data set: AlphaScreen, ABA-dependent receptor-PP2C interaction. It is filed as binding. An excerpt: AlphaScreen, ABA-dependent receptor-PP2C interaction on ZjPYL2 with AtHAB1 | EC50 values of FePYL1, FePYR1, ZjPYL2 in interacting with AtHAB1

A further data set deals with T4, FePYL1 with AtHAB1 (Festuca elata, UniProt A0A2D1UXN6).
T4 construct: H6-SUMO-FePYL1 and biotin-MBP-AtHAB1 (172-511), E. coli; tags kept; with Protein phosphatase 2C 16 (HAB1, Arabidopsis thaliana)
T4 sequence (A0A2D1UXN6 1-204): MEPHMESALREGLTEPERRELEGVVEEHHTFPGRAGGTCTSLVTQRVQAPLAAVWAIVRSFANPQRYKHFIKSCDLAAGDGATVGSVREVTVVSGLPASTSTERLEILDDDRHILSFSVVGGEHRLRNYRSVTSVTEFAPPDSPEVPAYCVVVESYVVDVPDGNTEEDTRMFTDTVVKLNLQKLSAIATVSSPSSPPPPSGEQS
T4 sequence (Q9CAJ0 172-511 partner): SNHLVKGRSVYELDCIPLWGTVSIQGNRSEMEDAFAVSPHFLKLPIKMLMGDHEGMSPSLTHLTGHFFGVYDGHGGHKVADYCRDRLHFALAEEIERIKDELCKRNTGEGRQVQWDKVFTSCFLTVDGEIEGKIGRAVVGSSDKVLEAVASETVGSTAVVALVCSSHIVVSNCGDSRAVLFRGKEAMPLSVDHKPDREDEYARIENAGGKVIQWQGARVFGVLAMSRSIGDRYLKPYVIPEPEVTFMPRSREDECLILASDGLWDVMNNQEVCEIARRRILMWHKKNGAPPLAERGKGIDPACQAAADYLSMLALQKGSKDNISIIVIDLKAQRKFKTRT
Described as above. It is filed as binding. An excerpt:
AlphaScreen, ABA-dependent receptor-PP2C interaction on FePYL1 with AtHAB1 | EC50 values of FePYL1, FePYR1, ZjPYL2 in interacting with AtHAB1

The target of a further data set is T5, AtPYR1 with AtHAB1 (Arabidopsis thaliana, UniProt O49686).
T5 construct: gene PYR1; H6-SUMO-AtPYR1 (9-182) and biotin-MBP-AtHAB1 (172-511), E. coli; tags kept; with Protein phosphatase 2C 16
T5 sequence (O49686 9-182): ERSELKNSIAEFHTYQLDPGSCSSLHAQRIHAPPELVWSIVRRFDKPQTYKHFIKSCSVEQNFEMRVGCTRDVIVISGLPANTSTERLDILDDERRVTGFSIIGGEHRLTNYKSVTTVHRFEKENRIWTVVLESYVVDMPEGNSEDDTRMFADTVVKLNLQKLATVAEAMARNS
T5 sequence (Q9CAJ0 172-511 partner): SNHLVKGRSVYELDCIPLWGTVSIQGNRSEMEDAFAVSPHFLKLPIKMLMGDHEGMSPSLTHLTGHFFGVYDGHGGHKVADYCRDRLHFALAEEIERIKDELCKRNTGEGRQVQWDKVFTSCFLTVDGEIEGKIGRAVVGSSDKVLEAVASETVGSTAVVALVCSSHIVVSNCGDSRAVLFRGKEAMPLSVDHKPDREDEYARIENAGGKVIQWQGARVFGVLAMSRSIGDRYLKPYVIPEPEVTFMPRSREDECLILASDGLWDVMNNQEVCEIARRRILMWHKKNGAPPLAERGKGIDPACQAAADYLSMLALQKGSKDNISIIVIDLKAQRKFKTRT
The description is as above. It is filed as binding.

Data set [1] deals with the molecule itself. Kind of data set: SEC; HPLC size-exclusion column chromatography with or without (+)-ABA; 43 kD protein marker. Background: SEC sorts molecules by how far they enter the pores of the column.
The target of data set [2] is T6, biotin-MBP-tagged AtHAB1 (residues 172-511), Q9CAJ0.
T6 chain: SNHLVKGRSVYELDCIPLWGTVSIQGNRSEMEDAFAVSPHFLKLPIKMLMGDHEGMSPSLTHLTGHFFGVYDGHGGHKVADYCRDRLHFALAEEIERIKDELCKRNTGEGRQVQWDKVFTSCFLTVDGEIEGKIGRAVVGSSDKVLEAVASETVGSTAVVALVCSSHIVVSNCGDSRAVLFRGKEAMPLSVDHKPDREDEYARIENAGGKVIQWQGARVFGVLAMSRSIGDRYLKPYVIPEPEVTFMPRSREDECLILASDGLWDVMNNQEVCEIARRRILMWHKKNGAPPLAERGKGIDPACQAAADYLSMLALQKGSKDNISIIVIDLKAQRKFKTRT
Kind of data set: AlphaScreen. The following applies: chain shown with the change, read off a plot.

The mark [3] stands for this setting: ABA (100 μM), parent: est. 8400.
Where [4] appears, read: DMSO (no ABA), parent: est. 2200.

The term EC50 denotes the concentration that produces a half-maximal response. As for `CC1=CC(=O)CC(C)(C)C1(O)/C=C/C(C)=C\C(=O)O` (stereo in doubt) [(+)-ABA], the EC50 at FePYR1-ABA-AtHAB1 is 2.3 µM; at ZjPYL2 with AtHAB1, 3.73 µM; at FePYL1 with AtHAB1, 0.671 µM; at AtPYR1 with AtHAB1 it was 7.36 µM. The “ABA binding assay in supplement (method not given)” value on AtPYR1 is recorded as “the binding affinity with ABA ... are comparable between these two ABA receptors”.

B1: AtPYR1 (size-exclusion chromatography, with or without ABA) (receptor, Arabidopsis, UniProt O49686 9-182, looked up)
chain: ERSELKNSIAEFHTYQLDPGSCSSLHAQRIHAPPELVWSIVRRFDKPQTYKHFIKSCSVEQNFEMRVGCTRDVIVISGLPANTSTERLDILDDERRVTGFSIIGGEHRLTNYKSVTTVHRFEKENRIWTVVLESYVVDMPEGNSEDDTRMFADTVVKLNLQKLATVAEAMARNS
notes: Arabidopsis ABA receptor PYR1; also called AtPYR1-apo; source: E. coli, purified
For orientation: stoichiometry N means the number of molecules, sites or subunits per partner or assembly. For B1, in data set [1], the “stoichiometry N” value was found to be 2.

B2: H6-SUMO-tagged FePYR1 L104A (protein)
chain: MEQQPAAAEPEVPAGLGLTAAEYAELQPTVEAYHRYAVGPGQCSSLVAQRIEAPAAAVWAIVRRFDCPQVYKHFIRSCALRPDPDAGDELRPGRLREVSVISGAPASTSTERLDLLDDARRAFGFTITGGEHRLANYRSVTTVSELAPAAPAKICTVVLESYVVDVPEGNSEEDTRLFADTVVRLNLQKLKSLAEANATSAAAQATPPPQAE
B2: the response (photon counts) in data set [2] (setting [3]) came to 2500.

B3: H6-SUMO-tagged FePYR1 S102A (protein)
chain: MEQQPAAAEPEVPAGLGLTAAEYAELQPTVEAYHRYAVGPGQCSSLVAQRIEAPAAAVWAIVRRFDCPQVYKHFIRSCALRPDPDAGDELRPGRLREVSVIAGLPASTSTERLDLLDDARRAFGFTITGGEHRLANYRSVTTVSELAPAAPAKICTVVLESYVVDVPEGNSEEDTRLFADTVVRLNLQKLKSLAEANATSAAAQATPPPQAE
With B3, the response (photon counts) in data set [2] (ABA (2 μM), parent: est. 6900) stood at 750; in data set [2] (ABA (10 μM), parent: est. 12000), 3000; in data set [2] (setting [3]), 5800.

B4: H6-SUMO-tagged FePYR1 E111A (protein)
chain: MEQQPAAAEPEVPAGLGLTAAEYAELQPTVEAYHRYAVGPGQCSSLVAQRIEAPAAAVWAIVRRFDCPQVYKHFIRSCALRPDPDAGDELRPGRLREVSVISGLPASTSTARLDLLDDARRAFGFTITGGEHRLANYRSVTTVSELAPAAPAKICTVVLESYVVDVPEGNSEEDTRLFADTVVRLNLQKLKSLAEANATSAAAQATPPPQAE
Consider B4, for which the response (photon counts) in data set [2] (setting [3]) came out at 800.

B5: H6-SUMO-tagged FePYR1 L185C (protein)
chain: MEQQPAAAEPEVPAGLGLTAAEYAELQPTVEAYHRYAVGPGQCSSLVAQRIEAPAAAVWAIVRRFDCPQVYKHFIRSCALRPDPDAGDELRPGRLREVSVISGLPASTSTERLDLLDDARRAFGFTITGGEHRLANYRSVTTVSELAPAAPAKICTVVLESYVVDVPEGNSEEDTRLFADTVVRCNLQKLKSLAEANATSAAAQATPPPQAE
For B5, the response (photon counts) was 16000 in data set [2] (ABA (5 μM), parent: est. 17000) and 2200 in data set [2] (setting [4]).

B6: H6-SUMO-tagged FePYR1 I127A (protein)
chain: MEQQPAAAEPEVPAGLGLTAAEYAELQPTVEAYHRYAVGPGQCSSLVAQRIEAPAAAVWAIVRRFDCPQVYKHFIRSCALRPDPDAGDELRPGRLREVSVISGLPASTSTERLDLLDDARRAFGFTATGGEHRLANYRSVTTVSELAPAAPAKICTVVLESYVVDVPEGNSEEDTRLFADTVVRLNLQKLKSLAEANATSAAAQATPPPQAE
For B6, the response (photon counts) in data set [2] (ABA (5 μM), parent: est. 17000) was determined as 9500; in data set [2] (setting [4]), 2100.

Values taken from article PMC5656587, “Structure determination and activity manipulation of the turfgrass ABA receptor FePYR1” (Scientific Reports, 2017).
